Measurements reported in publication PMC3956856, “Interaction of Kinase-Interaction-Motif Protein Tyrosine Phosphatases with the Mitogen-Activated Protein Kinase ERK2” (PLoS ONE, 2014).
Entries after “also recorded” stand apart in the source; their conditions may differ. Like-named read-outs stand apart in the source and are kept apart here.

Columns and labels:
[1] = target: HePTP (Homo sapiens) (UniProt P35236); conditions: cited from earlier work
[2] = target: PTPSL (Homo sapiens) (UniProt Q15256); conditions: cited from earlier work
Chain of PTPSL (Homo sapiens) (Q15256 22-657): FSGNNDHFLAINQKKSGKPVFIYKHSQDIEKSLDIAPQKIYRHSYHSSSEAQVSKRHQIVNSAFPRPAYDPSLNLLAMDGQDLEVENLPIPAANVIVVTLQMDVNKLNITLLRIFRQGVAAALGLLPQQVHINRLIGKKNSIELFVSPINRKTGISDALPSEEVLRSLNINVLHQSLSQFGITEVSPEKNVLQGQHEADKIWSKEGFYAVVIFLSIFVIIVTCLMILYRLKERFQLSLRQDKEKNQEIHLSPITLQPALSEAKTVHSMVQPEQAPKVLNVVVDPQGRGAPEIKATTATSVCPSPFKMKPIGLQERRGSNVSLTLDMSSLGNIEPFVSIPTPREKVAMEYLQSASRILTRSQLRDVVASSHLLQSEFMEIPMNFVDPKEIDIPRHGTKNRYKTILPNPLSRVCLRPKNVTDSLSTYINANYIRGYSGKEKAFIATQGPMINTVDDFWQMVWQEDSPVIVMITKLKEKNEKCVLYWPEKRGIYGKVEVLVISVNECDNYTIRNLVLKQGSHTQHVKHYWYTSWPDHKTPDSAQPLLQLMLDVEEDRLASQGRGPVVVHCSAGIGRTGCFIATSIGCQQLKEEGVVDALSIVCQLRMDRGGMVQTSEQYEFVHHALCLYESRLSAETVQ

[3] = target: DUSP16 MKBD MKBD (Homo sapiens) (UniProt Q9BY84); test: ITC; conditions: cited from earlier work
[4] = target: T1, ERK2 (Rattus norvegicus, UniProt P63086); test: Isothermal titration calorimetry with ERK2; format: binding
T1 construct: gene Mapk1; made in house
Procedure: The PTPSLKIM peptide (residues 331–348), STEPKIM (residues 213–229) and STEPKIMKIS (residues 213–256) were synthesized, HPLC purified and verified by mass spectrometry (MS) (>98% purity; Biosynthesis, Inc.). Expression and purification of ERK2 and PTPSLKIMKIS (residues 332–373) was carried out as previously described, [15]. PTPSL (residues 332–655, human), STEP (residues 213–539, mouse) and PSChimera (PTPSL residues 332–373 with STEP residues 257–539; gene synthesized by DNA 2.0) were expressed and purified using the protocol previously described in detail for STEPCAT (residues 244–539). The DUSP16 MAPK binding domain (residues 5–138, human) was expressed and purified as previously described. All purified proteins were stored at −80 °C until use at which point they were thawed and exchanged into the appropriate buffer using size exclusion chromatography (SEC; Superdex 75 26/60; GE Healthcare). The final protein buffer was dependent on the experiment performed. For ITC experiments, the final SEC purification was performed in ITC buffer (10 mM Tris pH 7.5, 150 mM NaCl, 0.1 mM EDTA, 0.5 mM TCEP); for SAXS experiments, the final SEC purification was performed in SAXS buffer (50 mM HEPES pH 6.8, 150 mM NaCl, 5 mM dithiothreitol). PTPSLKIM, STEPKIM and STEPKIMKIS peptides were solubilized in ITC buffer prior to ITC measurements.
ITC experiments were performed at 25 °C using a VP-ITC microcalorimeter (Microcal Inc.). Titrant (10 μL per injection) was injected into the sample cell over a period of 20 seconds with a 250 second interval between titrations to allow for complete equilibration and baseline recovery. 28 injections were delivered during each experiment and the solution in the sample cell was stirred at 307 rpm to ensure rapid mixing. To determine the thermodynamic parameters (ΔH, ΔS, ΔG) and binding constants (K) of the ERK2:PTPSLKIM, ERK2:PTPSL, ERK2:STEP and ERK2:PSChimera interactions, PTPSLKIM, PTPSL, STEP and PSChimera were titrated into ERK2. To determine the same parameters for the ERK2:STEPKIM, ERK2:PTPSLKIMKIS and ERK2:STEPKIMKIS interaction, ERK2 was titrated into the peptides. Titrants were chosen based on the amount of purified protein/peptide available for the experiment. For all titrations the concentrations were slightly varied to ensure independence of the Kd from the protein/peptide concentrations. Data were analyzed with a one-site binding model assuming a binding stoichiometry of 1∶1 using Origin 7.0 software. A nonlinear least-squares algorithm and the titrant and sample cell concentrations were used to fit the heat flow per injection to an equilibrium binding equation, providing values of the stoichiometry (n), change in enthalpy (ΔH) and binding constant (K). All data were repeated in triplicate.

[5] = target: T1, ERK2; test: SAXS of resting-state complexes with ERK2; as to Dmax shorter than that of the ERK2:HePTP complex: values in Å; as to Dmax, P(r) function: values in Å; as to Rg smaller than that of the ERK2:HePTP resting-state complex: values in Å
Procedure: To form the ERK2:STEP resting-state complex, purified, unphosphorylated ERK2 was incubated in a 1∶1 molar ratio with purified STEP213-539 at room temperature for 30 minutes and purified using SEC (Superdex 75 26/60 [GE Healthcare]; SAXS buffer). Data for the ERK2:STEP complex were recorded on samples at 0.7, 1.2 and 1.7 mg/ml. All samples were prepared within 48 hours of data acquisition and stored on ice at 4 °C. All samples were filtered ([…], Whatman) immediately prior to data collection. All data was recorded at Beamline X9A at the National Synchrotron Light Source (NSLS) using a Dectris Pilatus 300k (3.4 m distance from the sample for SAXS) and a Photonic Science CCD (0.47 m from the sample for WAXS) detector. 20 μl of sample was continuously flowed through a 1 mm diameter capillary and exposed to an X-ray beam for 30 seconds. Normalization for beam intensity, buffer subtraction and merging of the data from both detectors were carried out using PRIMUS [20]. A Guinier approximation, I(q) = I(0)exp(-q^2Rg ^2/3), where a plot of ln[I(q)] and q^2 is linear for q<1.3/Rg (q is the scattering vector q = 4πsin(θ)/λ; λ, wavelength of X-rays and 2θ is the angle between the incident beam and the scattering X-rays) was performed on at least four independent scattering trials and averaged to determine the radius of gyration (Rg). The linearity of the Guinier region and the intensity at zero scattering angle, I(0), were used to validate that all samples were monodisperse in solution. I(0)/c, where c is concentration, was consistent for all measurements. GNOM [21] was used to determine the pair-distribution function, P(r), for the ERK2:STEP resting-state complex using data collected on the 1.7 mg/ml sample. Twenty-four envelopes were generated using GASBOR [22] and were aligned and averaged using the DAMAVER program suite.

[6] = target: p38α; conditions: values previously published, ref [14], [15], [17], [18], cited from earlier work
Text: We used ITC measurements to determine the binding affinity of STEP and PTPSL for unphosphorylated ERK2 ( Table 1; Figure S1). […] This complex has a ∼3-times lower Kd (tighter binding) than the next tightest complex, ERK2:PTPSL, and a nearly 70-fold greater affinity than the weakest complex, p38α:HePTP [15]. Like STEP, PTPSL binds ERK2 more tightly (∼3.5-fold) than p38α. We also tested peptides that include the kinase specificity s ... || We also generated a chimeric protein in which we fused the PTPSLKIMKIS to STEPCAT (PSchimera; Figure 1A ). […] Thus, they only adopt a single conformation when they bind their respective MAPKs. This is different from the MAPK-binding domains (MKBD) of MAPK phosphatases (MKP; dual specificity phosphatases; DUSPs), [26]. In MKPs, the KIM sequence is part of a stable, folded domain and thus adopts a single, ordered conformation in both the unbound and MAPK-bound states, [28]. […] Our ... || (+ 1 further places)

[7] = target: T1, ERK2; test: SAXS of resting-state complexes with ERK2; conditions: ERK2:STEP; 24 GASBOR envelopes, DAMAVER; as to Dmax shorter than that of the ERK2:HePTP complex: values in Å; as to Dmax, P(r) function: values in Å; as to Rg smaller than that of the ERK2:HePTP resting-state complex: values in Å
[8] = target: T2, extracellular signal-regulated kinase 2 (ERK2), unphosphorylated (UniProt P63086 1-358); test: ITC; PTPSLKIM, PTPSL, STEP or PSChimera titrated into ERK2 in the cell; 25 °C; 10 mM Tris pH 7.5, 150 mM NaCl, 0.1 mM EDTA, 0.5 mM TCEP; one-site model; triplicate; conditions: both partners purified
T2 construct: ERK2 (extracellular signal-regulated kinase 2), unphosphorylated; also called MAPK; source: final SEC (Superdex 75 26/60)

[9] = test system: p38α; conditions: NMR; MAPK-binding domain; ref [18]; cited from earlier work
Text: Although there are a few structural differences between ERK2 and p38α in this region (e.g., the activation loop is six residues longer in ERK2), nearly all residues that that we sh ... || The KIM domains of KIM-PTPs are intrinsically disordered in solution [14], [15]. Thus, they only adopt a single conformation when they bind their respective MAPKs. This is different from the MAPK-binding domains (MKBD) of MAPK phosphatases (MKP; dual specificity phosphatases; DUSPs), [26]. In MKPs, the KIM sequence is part of a stable, folded domain and thus adopts a single, ordered conformation in both the unbound and MAPK-bound states, [28]. […] Our ...

[10] = target: T2, extracellular signal-regulated kinase 2 …; test: ITC; DUSP16 MKBD and ERK2, which was the titrant is not stated; 25 °C; ITC buffer; one-site model; triplicate; conditions: both partners purified

Chain of HePTP (Homo sapiens) (P35236 whole entry): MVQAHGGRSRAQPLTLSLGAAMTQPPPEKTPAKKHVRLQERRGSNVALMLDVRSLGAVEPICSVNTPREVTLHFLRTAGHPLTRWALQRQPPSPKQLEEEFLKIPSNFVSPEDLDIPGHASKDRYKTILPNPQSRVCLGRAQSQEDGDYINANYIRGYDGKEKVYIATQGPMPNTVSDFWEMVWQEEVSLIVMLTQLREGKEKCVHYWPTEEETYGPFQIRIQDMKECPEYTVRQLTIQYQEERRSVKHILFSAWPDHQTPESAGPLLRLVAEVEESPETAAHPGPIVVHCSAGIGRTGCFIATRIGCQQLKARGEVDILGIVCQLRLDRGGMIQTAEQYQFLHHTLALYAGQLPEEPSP

## ERK2 (from UniProt P63086)
[1]
  Kd: 370 nM

## p38α (from UniProt Q16539)
[2]
  Kd: 380 nM
[3]
  Kd: 900 nM

B1: STEP (residues 213-539, mouse) (domain or fragment, UniProt P54830 213-539, looked up)
chain: MGLQERRGSNVSLTLDMCTPGCNEEGFGYLVSPREESAHEYLLSASRVLRAEELHEKALDPFLLQAEFFEIPMNFVDPKEYDIPGLVRKNRYKTILPNPHSRVRLTSPDPEDPLSSYINANYIRGYSGEEKVYIATQGPIVSTVADFWRMVWQERTPIIVMITNIEEMNEKCTEYWPEEQVVHDGVEITVQKVIHTEDYRLRLISLRRGTEERSLKHYWFTSWPDQKTPDRAPPLLHLVREVEEAAQQEGPHCSPIIVHCSAGIGRTGCFIATSICCQQLRREGVVDILKTTCQLRQDRGGMIQTCEQYQFVHHAMSLYEKQLSLQS
notes: STEP (PTPN5, striatal enriched protein tyrosine phosphatase), mouse, residues 213-539 (KIM, KIS and catalytic domain); The results loosely call this construct 'full-length STEP'; the construct is residues 213-539; also called STEP_(213-539); PTPN5; source: final SEC
[4]; ERK2, ITC
  relative binding to ERK2 (in words): tightest binding complex of all MAPK:KIM-PTP complexes tested; also recorded: more strongly than does HePTP
[4]; ERK2, ITC, versus STEPKIM
  tighter binding to ERK2 than the STEPKIM peptide: 11 times
[4]; ERK2:STEP versus ERK2:PTPSL
  lower Kd (tighter binding) than the next tightest complex, ERK2:PTPSL: ~3 times
[4]; ITC Kd, ERK2 versus p38α
  tighter binding to ERK2 than to p38α: ~12 times
  tighter binding to ERK2 than to p38α (fold difference in affinity): 12 fold
[4]; ITC, ERK2 versus p38α
  affinity for ERK2 compared with p38α (in words): higher binding affinity for ERK2 than for p38α; also recorded: bind more strongly to ERK2
[4]; unphosphorylated ERK2, ITC, 25 °C, 10 mM Tris pH 7.5, 150 mM NaCl, 0.1 mM EDTA, 0.5 mM TCEP, average and standard deviation, triplicate
  TΔS: -19.7 ± 2.0 kcal/mol
[5]; ERK2:STEP resting-state complex, GNOM, 1.7 mg/ml sample
  Dmax, P(r) function: 95 Å
[5]; ERK2:STEP resting-state complex, GNOM, 1.7 mg/ml sample, Q-range 0.013–0.303 Å^−1
  Rg, P(r) function calculation: 31.1 Å
[5]; ERK2:STEP versus ERK2:HePTP
  Dmax shorter than that of the ERK2:HePTP complex: ~15 Å
  Rg smaller than that of the ERK2:HePTP resting-state complex: ~3.0 Å
[5]; ERK2:STEP versus p38α:STEP resting-state complex
  Rg and Dmax compared with p38α:STEP complex (in words): highly similar to those determined for the p38α:STEP resting-state complex
[5]; ERK2:STEP, 24 GASBOR envelopes
  χ^2, structure modeling: 2.3±0.2
[5]; resting-state complex, SAXS
  shape of the complex with ERK2 (in words): compact; also recorded: more compact, globular complexes
[6]
  Kd: 577 ± 71 nM
[7]
  NSD, structure modeling: 1.31±0.05
[8]
  Kd: 48 nM
  dH: -29.5 kcal/mol

B2: DUSP16 MAPK binding domain (residues 5-138, human) (domain or fragment, UniProt Q9BY84 5-138, looked up)
chain: MIGTQIVTERLVALLESGTEKVLLIDSRPFVEYNTSHILEAININCSKLMKRRLQQDKVLITELIQHSAKHKVDIDCSQKVVVYDQSSQDVASLSSDCFLTVLLGKLEKSFNSVHLLAGGFAEFSRCFPGLCEG
notes: also called DUSP16 MKBD; DUSP16 MKB domain; source: final SEC
[4]; ITC Kd, ERK2 versus p38α
  weaker binding to ERK2 than to p38α (difference in Kd): ~1.4 fold
[4]; ITC, ERK2 versus p38α
  affinity for ERK2 compared with p38α (in words): binds these MAPKs with similar affinities; also recorded: binds both MAPKs with similar affinities
[6]; listed as DUSP16MKBD-KIM
  Kd: 890 ± 230 nM
[6]
  Kd: ~900 nM
[9]
  interaction with p38α by NMR (in words): interacts at multiple positions with p38α
[10]
  Kd: 1300 nM
  dH: -4.8 kcal/mol
